The values below come from article PMC5484391 (Cell, 2017).

The data set deals with the molecule itself. Put plainly: cryo-EM structure.

B1: hERGTs (human hERG, truncated construct lacking residues 141–380 and 871–1005) (natural protein, UniProt Q12809 1-1159, looked up)
chain: MPVRRGHVAPQNTFLDTIIRKFEGQSRKFIIANARVENCAVIYCNDGFCELCGYSRAEVMQRPCTCDFLHGPRTQRRAAAQIAQALLGAEERKVEIAFYRKDGSCFLCLVDVVPVKNEDGAVIMFILNFEVVMEKDMVGSGADVLPEYKLQAPRIHRWTILHYSPFKAVWDWLILLLVIYTAVFTPYSAAFLLKETEEGPPATECGYACQPLAVVDLIVDIMFIVDILINFRTTYVNANEEVVSHPGRIAVHYFKGWFLIDMVAAIPFDLLIFGSGSEELIGLLKTARLLRLVRVARKLDRYSEYGAAVLFLLMCTFALIAHWLACIWYAIGNMEQPHMDSRIGWLHNLGDQIGKPYNSSGLGGPSIKDKYVTALYFTFSSLTSVGFGNVSPNTNSEKIFSICVMLIGSLMYASIFGNVSAIIQRLYSGTARYHTQMLRVREFIRFHQIPNPLRQRLEEYFQHAWSYTNGIDMNAVLKGFPECLQADICLHLNRSLLQHCKPFRGATKGCLRALAMKFKTTHAPPGDTLVHAGDLLTALYFISRGSIEILRGDVVVAILGKNDIFGEPLNLYARPGKSNGDVRALTYCDLHKIHRDDLLEVLDMYPEFSDHFWSSLEITFNLRDTNMIPGGRQYQELPRCPAPTPSLLNIPLSSPGRRPRGDVESRLDALQRQLNRLETRLSADMATVLQLLQRQMTLVPPAYSAVTTPGPGPTSTSPLLPVSPLPTLTLDSLSQVSQFMACEELPPGAPELPQEGPTRRLSLPGQLGALTSQPLHRHGSDPGS
Turning to B1, the binding result is recorded as “binds”.
